Data published in patent US20030199036.

Target: ubiquitin (in vitro thiol-ubiquitination experiment, source not stated)

B1: human pub2 (protein)
chain: MERPYTFKDFLLRPRSHKSRVKGFLRLKMAYMPKNGGQDEENSDQRDDMEHGWEVVDSNDSASQHQEELPPPPLPPGWEEKVDNLGRTYYVNHNNRTTQWHRPSLMDVSSESDNNIRQINQEAAHRRFRSRRHISEDLEPEPSEGGDVPEPWETISEEVNIAGDSLGLALPPPPVSPGSRTSPQELSEELSRRLQITPDSNGEQFSSLIQREPSSRLRSCSVTDAVAEQGHLPPPSVAYVHTTPGLPSGWEERKDAKGRTYYVNHNNRTTTWTRPIMQLAEDGASGSATNSNNHLIEPQIRRPRSLSSPTVTLSAPLEGAKDSPVRRAVKDTLSNPQSPQPSPYNSPKPQHKVTQSFLPPGWEMRIAPNGRPFFIDHNTKTTTWEDPRLKFPVHMRSKTSLNPNDLGPLPPGWEERIHLDGRTFYIDHNSKITQWEDPRLQNPAITGPAVPYSREFKQKYDYFRKKLKKPADIPNRFEMKLHRNNIFEESYRRIMSVKRPDVLKARLWIEFESEKGLDYGGVAREWFFLLSKEMFNPYYGLFEYSATDNYTLQINPNSGLCNEDHLSYFTFIGRVAGLAVFHGKLLDGFFIRPFYKMMLGKQITLNDMESVDSEYYNSLKWILENDPTELDLMFCIDEENFGQTYQVDLKPNGSEIMVTNENKREYIDLVIQWRFVNRVQKQMNAFLEGFTELLPIDLIKIFDENELELLMCGLGDVDVNDWRQHSIYKNGYCPNHPVIQWFWKAVLLMDAEKRIRLLQFVTGTSRVPMNGFAELYGSNGPQLFTIEQWGSPEKLPRAHTCFNRLDLPPYETFEDLREKLLMAVENAQGFEGVD
- thiol-ubiquitination in vitro: both h-pub1 and h-pub2 can become thiol-ubiquitinated in vitro
